Data reported in patent publication US20120058906A1 (published 2012).

T1: rHuman Erythropoietin R/Fc Chimera, CF (R&D Systems Cat#963-ER) (human, UniProt P19235 25-250)
T1 construct: Bought Fc chimera; also called EPO R/Fc; Epo R; not shown: Fc of the bought chimera
T1 sequence: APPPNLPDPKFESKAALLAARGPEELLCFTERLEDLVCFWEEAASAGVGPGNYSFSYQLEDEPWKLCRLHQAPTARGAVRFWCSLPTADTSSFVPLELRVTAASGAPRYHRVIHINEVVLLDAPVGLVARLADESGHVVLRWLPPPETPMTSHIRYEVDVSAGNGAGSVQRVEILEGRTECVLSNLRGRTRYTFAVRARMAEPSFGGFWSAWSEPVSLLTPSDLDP

B1: Fab VH5-51_IGHD5-18*01>3_IGHJ4*01_G100K & V3-4_IGLJ1*01 (Fab, V domains shown)
VH: EVQLVQSGAEVKKPGESLKISCKGSGYSFTSYWIGWVRQMPGKGLEWMGIIYPGDSDTRYSPSFQGQVTISADKSISTAYLQWSSLKASDTAMYYCARRKYSYGYDYFDYWGQGTLVTVSS
VL: QTVVTQEPSFSVSPGGTVTLTCGLSSGSVSTSYYPSWYQQTPGQAPRTLIYSTNTRSSGVPDRFSGSILGNKAALTITGAQADDESDYYCVLYMGSGISYVFGTGTKVTVL
notes: It was expressed as a Fab: CH1 with tags from Plasmid A and lambda CL from Plasmid E; also called Fab No. 22
B2: Fab VH1-46_IGHD6-6*01_IGHJ1*01_S102A_S103P_S104Y_H111Y & L6_IGKJ1*01 (Fab, V domains shown)
VH: QVQLVQSGAEVKKPGASVKVSCKASGYTFTSYYMHWVRQAPGQGLEWMGIINPSGGSTSYAQKFQGRVTMTRDTSTSTVYMELSSLRSEDTAVYYCAREEYAPYSAEYFQYWGQGTLVTVSS
VL: not shown
notes: Fab made in E. coli; The heavy chain also carries CH1 with Flag and His tags from Plasmid A, and the light chain carries kappa CL from Plasmid C

Legend:
[1] = molecular target: T2, rHuman IGF-1 sR (IGF-1 sR), CF (R&D Systems Cat#391-GR) (human, UniProt P08069 31-932); test: MSD ECL multi-spot plate, antigen immobilized; Fab 1.6 nM; blank spot 565;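 also: blank spot per well as comparator with Hit at signal to blank ratio of 4 or more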
T2 construct: Purchased soluble receptor; also called insulin-like growth factor-1 soluble receptor; IGF-R1

[2] = molecular target: T3, rHuman P-Cadherin/Fc Chimera, CF (R&D Systems Cat#861-PC) (human, UniProt P22223 108-654); test: as above
T3 construct: Purchased Fc chimera; not shown: Fc portion of the purchased chimera

[3] = molecular target: T4, Recombinant Human DLL4 (R&D Systems Cat#1506-D4/CF) (human, UniProt Q9NR61 27-524); test: as above
T4 construct: Purchased recombinant protein; also called delta-like protein 4

[4] = molecular target: T5, rHuman ErbB2/Fc Chimera, CF (R&D Systems Cat#1129-ER) (human, UniProt P04626 23-652); test: as above
T5 construct: Purchased Fc chimera; also called HER2/neu; not shown: Fc portion of the purchased chimera

[5] = molecular target: T6, rHuman IGF-1 sR (insulin-like growth factor-1 soluble receptor), CF (R&D Systems Cat#391-GR) (human, UniProt P08069 31-932); test: ECL (MSD multi-spot), antigen on plate, Fab 50 nM
T6 construct: Bought soluble receptor; also called IGF-R1

[6] = molecular target: T7, rHuman P-Cadherin/Fc Chimera, CF (R&D Systems Cat#861-PC) (human, UniProt P22223 108-654); test: ECL (MSD multi-spot), antigen on plate, Fab 50 nM
T7 construct: Bought Fc chimera; also called CDH3; not shown: Fc of the bought chimera

[7] = molecular target: T1, rHuman Erythropoietin R/Fc Chimera, CF …; test: ECL (MSD multi-spot), antigen on plate, Fab 50 nM
[8] = molecular target: T8, Recombinant Human DLL4 (R&D Systems Cat#1506-D4/CF) (human, UniProt Q9NR61 27-524); test: ECL (MSD multi-spot), antigen on plate, Fab 50 nM
T8 construct: Bought recombinant protein; also called delta-like protein 4

[9] = molecular target: T9, rHuman ErbB2/Fc Chimera, CF (R&D Systems Cat#1129-ER) (human, UniProt P04626 23-652); test: ECL (MSD multi-spot), antigen on plate, Fab 50 nM
T9 construct: Bought Fc chimera; also called HER2/neu; not shown: Fc of the bought chimera

[10] = molecular target: T10, rHuman EGF R/Fc Chimera, CF (R&D Systems Cat#344-ER) (human, UniProt P00533 25-645); test: ECL (MSD multi-spot), antigen on plate, Fab 50 nM
T10 construct: Bought Fc chimera; also called ErbB-1; not shown: Fc of the bought chimera

[11] = molecular target: T11, rHuman HGF R/c-MET/Fc Chimera, CF (R&D Systems Cat#358-MT/CF) (human, UniProt P08581 25-932); test: ECL (MSD multi-spot), antigen on plate, Fab 50 nM
T11 construct: Bought Fc chimera; also called HGF R/Fc; not shown: Fc of the bought chimera

[12] = molecular target: T12, rHuman Notch-1/Fc Chimera, CF (R&D Systems Cat#3647-TK) (human, UniProt P46531 19-526); test: ECL (MSD multi-spot), antigen on plate, Fab 50 nM
T12 construct: Bought Fc chimera; not shown: Fc of the bought chimera

[13] = molecular target: T13, rHuman CD44/Fc Chimera, CF (R&D Systems Cat#3660-CD) (human, UniProt P16070 21-220); test: ECL (MSD multi-spot), antigen on plate, Fab 50 nM
T13 construct: Bought Fc chimera; not shown: Fc of the bought chimera

[14] = molecular target: T6, rHuman IGF-1 sR (insulin-like growth …); test: ECL (MSD multi-spot), antigen on plate, Fab 500 nM
[15] = molecular target: T7, rHuman P-Cadherin/Fc Chimera, CF (R&D …); test: ECL (MSD multi-spot), antigen on plate, Fab 500 nM
[16] = molecular target: T8, Recombinant Human DLL4 (R&D Systems …); test: ECL (MSD multi-spot), antigen on plate, Fab 500 nM
[17] = molecular target: T9, rHuman ErbB2/Fc Chimera, CF (R&D …); test: ECL (MSD multi-spot), antigen on plate, Fab 500 nM
[18] = molecular target: T11, rHuman HGF R/c-MET/Fc Chimera, CF (R&D …); test: ECL (MSD multi-spot), antigen on plate, Fab 500 nM
[19] = molecular target: T12, rHuman Notch-1/Fc Chimera, CF (R&D …); test: ECL (MSD multi-spot), antigen on plate, Fab 500 nM
[20] = molecular target: T13, rHuman CD44/Fc Chimera, CF (R&D Systems …); test: ECL (MSD multi-spot), antigen on plate, Fab 500 nM

Row | Binder | ECL signal [1] | ECL signal [2] | ECL signal [3] | ECL signal [4] | ECL signal [5] | ECL signal [6] | ECL signal [7] | ECL signal [8] | ECL signal [9] | ECL signal [10] | ECL signal [11] | ECL signal [12] | ECL signal [13] | ECL signal [14] | ECL signal [15] | ECL signal [16] | ECL signal [17] | ECL signal [18] | ECL signal [19] | ECL signal [20]
1 | B1 | 1440 ECL signal | 811 ECL signal | 2420 ECL signal | 1320 ECL signal | – | – | – | – | – | – | – | – | – | – | – | – | – | – | – | –
2 | B2 | – | – | – | – | 399 ECL signal | 470 ECL signal | 533 ECL signal | 201000 ECL signal | 470 ECL signal | 489 ECL signal | 312 ECL signal | 389 ECL signal | 345 ECL signal | 747 ECL signal | 1200 ECL signal | 106000 ECL signal | 596 ECL signal | 841 ECL signal | 689 ECL signal | 604 ECL signal
